In patent publication US20260035452A1 (THE UNIVERSITY OF BIRMINGHAM, priority 2022, published 2026):

Test system: Human dermal blood endothelial cells (HDBEC)
Assay: HDBEC stimulation (flow cytometry, IL-6 Elisa)
Format: cell-based
Conditions: 100 ng/ml in combination with TNF-α (100 U/ml), 24 h
Description: FIG. 10: Human dermal blood endothelial cells (HDBEC) were treated with: IL-17 vehicle (Ctrl), IL-17 or FM-0410 (100 ng/ml), alone or in combination with TNF-α (100 U/ml) for 24 h. Cells were washed, gated in their totality and singlet before the identification of IL-17Rs (RA and RC) (A, B), ICAM (C) and VCAM (D) expression. Histogram values (expressed as MIF) indicate the total positive cells (A-D). In (E) are shown phase-contrast micrographs of confluent monolayers of untreated or treated (as reported before) HDBEC. Total adhesion (expressed as INT/mm^2, F) and % of transmigration (G) are calculated with Image Pro programme (DataCell, Finchampstead). Inflammatory supernatants from all experimental conditions were assayed by Elisa for IL-6 (H) expressed in pg/ml. Data were presented as means±S.D. of n=3 healthy donors. Statistical analysis was conducted by one-way ANOVA followed by Bonferroni's for multiple comparisons. ^#P≤0.05, ^##P≤0.01, ^###P≤0.001, ^####P≤0.0001 vs Ctrl group; *P≤0.05 vs TNF-α+IL-17 group; ^∘P≤0.05, ^∘∘∘P≤0.001, ^∘∘∘∘P≤0.0001 vs TNF-α group.
Human dermal blood endothelial cells (HDBEC): Primary human dermal blood endothelial cells (HDBECs) were purchased from PromoCell and cultured in the manufacturer's recommended endothelial cell growth medium MV (PromoCell, Heidelberg, Germany). HDBECs were seeded onto 12-well tissue culture plates after 4 passages at a seeding density yielding confluent monolayers. HDBEC monolayers were washed in endothelial cell growth medium MV warmed to 37° C. and stimulated with IL-17 or FM-0410 (100 ng/ml) alone or in a combination with TNF-α (100 U/ml) for 24 h at 37° C. Cells were stimulated for 24 h, before staining with IL-17Rs (RA or RC) or ICAM/VCAM adhesion receptors using a Flow cytometry assay. Supernatants were collected and measured to evaluate IL-6 or TNF-α levels.
Flow Cytometry: HDBEC, collected after 24 h of treatment, were washed with PBS without Ca^2+ and Mg^2+ containing 25 mM lactose for 20 min at room temperature with occasional mixing. […] Protein expression was analysed by flow cytometry on a Dako CyAn (Beckman Coulter, High Wycombe, U.K.), and data were analysed using MRFIow and FlowJo software operation. The unspecific binding of antibodies was quantified by using corresponding isotype controls.
Elisa assay: The levels of IL-6 at 24 h were measured using commercially available enzyme-linked immunosorbent assay kits (ELISA kit, R&D System, Milan, Italy) according to the manufacturer's instructions. […] The addition of 100 μl of the substrate and stop solution represented the last steps before the reading of absorbance (measured at 450 nm) on a microplate reader. Antigen levels in the samples were determined using a standard curve and expressed as pg/ml.

B1: IL-17: recombinant mouse IL-17 purchased from R&D System; full-length cytokine used as comparator and stimulus (protein, UniProt Q62386 26-158, looked up)
Interleukin-17A: AAIIPQSSACPNTEAKDFLQNVKVNLKVFNSLGAKVSSRRPSDYLNRSTSPWTLHRNEDPDRYPSVIWEAQCRHQRCVNAEGKLDHHMNSVLIQQEILVLKREPESCPFTFRVEKMLVGVGCTCVASIVRQAA
ICAM expression: upregulation | IL-17RA receptor expression: No effects | IL-17RC receptor expression: No effects | VCAM expression: upregulation
